From patent US20130288979A1 (CENTRE NATIONAL DE LA RECHERCHE SCIENTIFIQUE CNRS, published 2013)
Non-standard residues stand in square brackets, D forms with d. No end group written: not given here. Ahx = NCCCCCC(=O)O

T1: His-tagged intracellular region of Fas receptor (UniProt P25445 191-335, limits assumed)
T1 construct: domain: intracellular region; Bought reagent (Sigma); also called intra-cellular region of the Fas receptor (Sigma); not shown: His tag
T1 sequence (looked up): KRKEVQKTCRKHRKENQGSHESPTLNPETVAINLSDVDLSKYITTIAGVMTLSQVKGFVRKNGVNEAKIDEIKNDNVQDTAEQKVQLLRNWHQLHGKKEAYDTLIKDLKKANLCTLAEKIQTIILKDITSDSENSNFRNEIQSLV

B1: ncDAXXp (peptide)
peptide: AKLYVYINELCTVLK
notes: Negative-control DAXX 15mer; the text uses it as Tat-ncDAXXp in the cell assays; also called circled spot at the start of row 41 of the DAXX pepscan
B2: Pip2b-DAXXp (peptide)
peptide: R[Ahx]RR[Ahx]RR[Ahx]RIHILFQN[dR]RMKWHKKKSRKEKKQTGSGPLG-NH2
modifications: not fully specified
notes: 39 residues; holds non-natural residues in the Pip2b part
B3: Tat-DAXXp (peptide)
peptide: GRKKRRQRRRPPQKKSRKEKKQTGSGPLG-NH2
notes: Conjugate of the Tat cell penetrating peptide (N-terminal) and DAXXp
B4: DAXXp (peptide)
peptide: KKSRKEKKQTGSGPLG-NH2
notes: also called DAXX peptide
B5: mDAXXp (peptide)
peptide: KRFRKEKKQLGSGLLG-NH2
modifications: not fully specified; printed as KRFRKEKKQLGSGLLG-NH2
notes: also called mouse homolog of human DAXXp; murine DAXXp

What was measured:
[1] = biological target: T1, His-tagged intracellular region of Fas …; test: SPOT pepscan of DAXX (15mers, shift 3) on membrane, probed with His-tagged Fas intracellular region, anti-His(mouse)/anti-mouse-HRP, enzyme-linked blot
[2] = biological target: T1, His-tagged intracellular region of Fas …; test: SPR (Biacore), mean of three experiments ± SD
Experimental: Additionally, the potential interaction of the fragments with the intracellular region of the Fas receptor was cross-validated by measuring the binding affinities (Kd) using the surface plasmon resonance (SPR) technique (Biacore Life Science, Sweden).
All experiments are performed on a Biacore instrument. For each condition, the mean value of three independent experiments and the corresponding standard deviation are plotted.

Row | Binder | binding result [1] | Kd [2]
1 | B1 | no binding | –
2 | B2 | – | 0.7 µM
3 | B3 | – | 13 µM
4 | B4 | – | 333 µM
5 | B5 | – | 252 µM
